Reference: patent US10556014B2, “Compounds containing a vascular disrupting agent” (Incanthera Ltd, priority 2007, dated 2020)
Where a SMILES comes first, the peptide text is derived from it. [ ]: non-standard residue; d: D form. The star is where a group is joined. NH(Colchicin-10-yl) = COc1cc2c(c(OC)c1OC)-c1ccc(N*)c(=O)cc1[C@@H](NC(C)=O)CC2; FITC = O=C1OC2(c3ccc(O)cc3Oc3cc(O)ccc32)c2ccc(NC(=S)*)cc21; hPhe = N[C@@H](CCc1ccccc1)C(=O)O; Cit = NC(=O)NCCC[C@H](N)C(=O)O; βAla = NCCC(=O)O

Key:
[1] = Ex vivo stability in normal mouse plasma (LC/MS/MS); format: in vitro ADME
From the text: (§1) [drawing 10] • a) Prodrug-1 has been screened using normal mouse plasma, normal mouse liver homogenate and experimental human tumour model homogenate (HT1080 xenograft; known to express majority of MMPs) ex vivo. Prodrug cleavage and metabolism were detected using LC/MS/MS. • a. Prodrug-1 was stable in plasma and liver, supporting systemic stability of these therapeutics (FIG. 1). • b. […] Plasma, tissues and tumours were collected at regular intervals post-dosing. Levels of prodrug and VDA2 were assessed by LC/MS/MS. • a. […] (FIG. 2) • d. […] VDA2 levels were detected at high levels in tumour tissue following prodrug-1 administration (FIG. 3) • f.
(§2) [drawing 11] • d) Compound 1 was modified in order to change the MMP-targeting of the compound from being pan-MMP to MT-MMP selective (Prodrug-2) • a. Arginine was incorporated in place of the Glutamic acid at the P4 position • b. […] Prodrug-2 cleavage and metabolism were detected using LC/MS/MS. • a. […] Prodrug-2 is not cleaved by recombinant MMP-9, in contrast to prodrug-1 • d. […] Plasma, tissues and tumours were collected at regular intervals post-dosing. Levels of prodrug-2 and VDA2 were assessed by LC/MS/MS. • a. […] Liver was representative of all normal tissues analysed. (FIG. 5) • d. […] Levels of VDA2 in tumour were 10 times higher than that detected in normal tissues following administration of prodrug-2 (FIG. 6) • g. […]

[2] = Ex vivo stability in normal mouse liver homogenate (LC/MS/MS); format: in vitro ADME
From the text: as §1, §2

[3] = system: HT1080 xenograft tumour homogenate; assay: Ex vivo metabolism in experimental human tumour model homogenate (HT1080 xenograft); format: in vitro ADME
From the text: as §1, §2

[4] = Levels of prodrug and VDA2 in plasma, tissues and tumour after intraperitoneal dosing of mice bearing subcutaneous HT1080 tumour; format: in vivo; conditions: HT1080 tumour bearing mice; for prodrug tissue distribution: all tissues analysed
From the text: as §1
[drawing 11] • d) Compound 1 was modified in order to change the MMP-targeting of the compound from being pan-MMP to MT-MMP selective (Prodrug-2) • a. Arginine was incorporated in place of the Glutamic acid at the P4 position • b. […] Prodrug-2 cleavage and metabolism were detected using LC/MS/MS. • a. […] Prodrug-2 is not cleaved by recombinant MMP-9, in contrast to prodrug-1 • d. […] Plasma, tissues and tumours were collected at regular intervals post-dosing. Levels of prodrug-2 and VDA2 were assessed by LC/MS/MS. • a. […] Liver was representative of all normal tissues analysed. (FIG. 5) • d. VDA2 was undetectable in plasma following administration of prodrug-2 (FIG. 6) • e. […] Levels of VDA2 in tumour were 10 times higher than that detected in normal tissues following administration of prodrug-2 (FIG. 6) • g. High levels of prodrug-2 and VDA2 were still detectable in tumour 48 hours post administration.

SMILES | stability in plasma [1] | stability in liver homogenate [2] | metabolism in tumour homogenate ([3]; HT1080 xenograft homogenate (expresses majority of MMPs)) | VDA2 levels in normal tissues following prodrug administration [4] | VDA2 levels in tumour following prodrug administration [4] | prodrug levels in the tumour compared with other tissues [4] | VDA2 level in normal tissues after 24 hours post-dosing with prodrug ([4]; 24 hours) | VDA2 level in tumour after 24 hours post-dosing with prodrug ([4]; 24 hours) | prodrug level after 24 hours post-dosing ([4]; 24 hours) | prodrug tissue distribution [4] | metabolism in tumour homogenate expressing high MT-MMP levels ([3]; HT1080 homogenate, relative to homogenate expressing low MT-MMP levels (MCF7)) | VDA2 level in plasma following prodrug administration [4] | levels of VDA2 in tumour relative to normal tissues following prodrug administration [4] | VDA2 level in tumour 48 hours post prodrug administration ([4]; 48 hours) | prodrug level in tumour 48 hours post administration ([4]; 48 hours)
COc1cc2c(c(OC)c1OC)-c1ccc(NC(=O)[C@H](Cc3ccc(O)cc3)NC(=O)[C@H](CC(C)C)NC(=O)[C@H](Cc3ccc(O)cc3)NC(=O)[C@H](CCc3ccccc3)NC(=O)CNC(=O)[C@H](CCCNC(N)=O)NC(=O)[C@@H]3CCCN3C(=O)[C@H](CCC(=O)O)NC(=O)CCNC(=S)Nc3ccc4c(c3)C(=O)OC43c4ccc(O)cc4Oc4cc(O)ccc43)c(=O)cc1[C@@H](NC(C)=O)CC2 [Prodrug-1] ({FITC-βAla}-EP[Cit]G[hPhe]YLY-{NH(Colchicin-10-yl)}) | stable | stable | metabolised | detectable at low levels | high levels | Highest | undetectable | still detectable at high levels | not detectable | accumulated and was detected in all tissues analysed | – | – | – | – | –
COc1cc2c(c(OC)c1OC)-c1ccc(NC(=O)[C@H](Cc3ccc(O)cc3)NC(=O)[C@H](CC(C)C)NC(=O)[C@H](Cc3ccc(O)cc3)NC(=O)[C@H](CCc3ccccc3)NC(=O)CNC(=O)[C@H](CCCNC(N)=O)NC(=O)[C@H](CO)NC(=O)[C@H](CCCNC(=N)N)NC(=O)CCNC(=S)Nc3ccc4c(c3)C(=O)OC43c4ccc(O)cc4Oc4cc(O)ccc43)c(=O)cc1[C@@H](NC(C)=O)CC2 [Prodrug-2] ({FITC-βAla}-RS[Cit]G[hPhe]YLY-{NH(Colchicin-10-yl)}) | remained intact | remained stable | – | – | High concentrations | Highest | – | – | – | accumulated and was detected in all tissues analysed | metabolised rapidly | undetectable | 10 times | High levels | High levels
